Results on one molecule are retold here after patent publication US20040067903A1 (published 2004).

Common to all, as to experiment: GST pull-down from GDP+AlF4- treated human platelet lysate, western blot
(In general: In western blotting, separated proteins are transferred to a membrane and probed.)

Test [1] deals with T1, Gαq (endogenous, human platelet lysate) (human, UniProt P50148 1-359).
T1 construct: mature; also called Gαq/11; alpha subunit detected by antibodies directed against Gαq/11
T1 sequence (looked up): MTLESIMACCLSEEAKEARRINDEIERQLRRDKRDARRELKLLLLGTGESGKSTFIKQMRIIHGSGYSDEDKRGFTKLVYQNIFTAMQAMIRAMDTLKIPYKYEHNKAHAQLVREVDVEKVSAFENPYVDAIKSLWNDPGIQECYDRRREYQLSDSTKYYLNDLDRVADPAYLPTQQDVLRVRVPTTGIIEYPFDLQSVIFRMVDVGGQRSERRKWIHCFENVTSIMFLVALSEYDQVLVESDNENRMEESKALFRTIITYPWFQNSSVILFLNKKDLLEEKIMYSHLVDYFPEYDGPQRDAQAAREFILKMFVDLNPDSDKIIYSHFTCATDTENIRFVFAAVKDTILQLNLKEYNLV
The protocol:
(§1) Bound antibody was detected using goat […] (BioRad, Hercules, Calif.) and Supersignal West Pico ECL reagent (Pierce, Rockford, Ill.).
(§2) In order to determine the target alpha subunits of RGS18, binding experiments were performed using GST-RGS18 as prepared in Example 4 and lysates of human platelets. A similar method has been used to determine the binding specificity of hRGS16 using lysates from Jurkat cells (164). […] For these experiments, platelets were lysed in a Triton X-100 containing buffer and resuspended to 1 mg/ml. The lysate was then treated with GDP, which holds the alpha subunit in the GDP-bound “in-activated” state, or GDP+AlF₄⁻ that mimics the transition state of the Gα subunit. Recombinant GST-RGS18 bound to Sepharose-4 beads was added to the treated lysates, incubated and washed several times. Bound protein was eluted in Laemmli buffer and subjected to SDS-PAGE followed by western blot analysis. A panel of G protein alpha subunit specific antibodies was used to determine which alpha subunits bind to RGS18. […] In contrast, in lysates that have been treated with GDP+AlF₄⁻, RGS18 binds a significant amount of alpha subunit detected by antibodies directed against G_{αi1/2}, G_{α0/i3} and G_{αq/11}. […] Neither GST nor Sepharose 4B alone binds to any of these alpha subunits in either GDP or GDP+AlF₄⁻ treated platelet lysates (data not shown). The binding selectivity of RGS18 is consistent with that found for other RGS proteins which selectively bind to members of the Gαi family and/or Gαq family (14).

The target in test [2] is T2, Gαz (endogenous, human platelet lysate) (human, UniProt P19086 2-355).
T2 construct: mature; also called printed once as Gα2
T2 sequence (P19086 2-355): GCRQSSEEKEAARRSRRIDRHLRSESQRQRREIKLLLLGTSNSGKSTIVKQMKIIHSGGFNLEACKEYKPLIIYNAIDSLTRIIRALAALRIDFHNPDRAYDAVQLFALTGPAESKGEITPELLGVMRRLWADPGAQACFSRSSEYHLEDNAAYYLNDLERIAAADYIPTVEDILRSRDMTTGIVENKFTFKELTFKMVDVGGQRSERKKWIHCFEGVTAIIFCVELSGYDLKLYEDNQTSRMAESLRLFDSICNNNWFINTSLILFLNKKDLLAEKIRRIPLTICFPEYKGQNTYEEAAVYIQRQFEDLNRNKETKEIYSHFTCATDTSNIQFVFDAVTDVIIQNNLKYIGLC
The protocol:
as §1, §2

For test [3], the target named is T3, Gα12 (endogenous, human platelet lysate) (human, UniProt Q03113 1-381).
T3 construct: mature
T3 sequence (looked up): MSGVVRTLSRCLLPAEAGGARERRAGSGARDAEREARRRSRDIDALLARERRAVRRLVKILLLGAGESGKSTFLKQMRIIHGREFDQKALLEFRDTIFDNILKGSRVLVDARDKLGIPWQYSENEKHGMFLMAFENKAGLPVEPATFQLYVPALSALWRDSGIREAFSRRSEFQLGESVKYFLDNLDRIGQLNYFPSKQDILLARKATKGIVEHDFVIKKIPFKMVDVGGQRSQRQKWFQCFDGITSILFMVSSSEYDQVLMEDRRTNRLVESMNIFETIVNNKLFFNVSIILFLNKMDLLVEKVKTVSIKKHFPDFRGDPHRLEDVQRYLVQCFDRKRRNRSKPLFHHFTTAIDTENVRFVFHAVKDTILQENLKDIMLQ
On the procedure:
as §1, §2

The target of test [4] is T4, Gαs (endogenous, human platelet lysate) (human, UniProt P63092 2-394).
T4 construct: mature
T4 sequence (P63092 2-394): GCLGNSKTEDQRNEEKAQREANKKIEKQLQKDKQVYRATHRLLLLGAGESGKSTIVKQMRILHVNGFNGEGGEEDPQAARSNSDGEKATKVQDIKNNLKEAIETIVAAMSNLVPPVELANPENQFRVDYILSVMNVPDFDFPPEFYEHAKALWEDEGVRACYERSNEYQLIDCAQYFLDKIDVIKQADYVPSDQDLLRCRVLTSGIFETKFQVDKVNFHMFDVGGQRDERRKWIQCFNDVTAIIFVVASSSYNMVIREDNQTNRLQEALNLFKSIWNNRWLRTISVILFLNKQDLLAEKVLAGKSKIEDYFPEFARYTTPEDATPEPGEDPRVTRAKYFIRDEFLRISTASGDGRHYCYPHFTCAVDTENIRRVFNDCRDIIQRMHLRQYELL
On the procedure: as §1, §2

B1: GST-RGS18 fusion protein coupled to glutathione-Sepharose 4B (other)
chain: METTLLFFSQINMCESKEKTFFKLIHGSGKEETSKEAKIRAKEKRNRLSLLVQKPEFHEDTRSSRSGHLAKETRVSPEEAVKWGESFDKLLSHRDGLEAFTRFLKTEFSEENIEFWIACEDFKKSKGPQQIHLKAKAIYEKFIQTDAPKEVNLDFHTKEVITNSITQPTLHSFDAAQSRVYQLMEQDSYTRFLKSDIYLDLMEGRPQRPTNLRRRSRSFTCNEFQDVQSDVAIWL
notes: The sense primer carries a few nucleotides upstream of the ATG, so a short extra linker between GST and Met1 is likely; also called recombinant GST-RGS18; GST-tagged fusion protein of RGS18; not shown: glutathione S-transferase (GST) tag encoded by plasmid pGEX-5X-1, N-terminal to RGS18 (in-frame Bam HI fusion); the fili
Regarding B1, the binding result in test [1] is given as “binds”; in test [2], “no binding”; in test [3] it was “no binding”; in test [4], “no binding”.
